The source of these data is patent publication US20100209945A1 (KOREA RESEARCH INSTITUTE OF BIOSCIENCE AND BIOTECHNOLOGY, published 2010).

A value given as a limit tells only on which side of the number the result lay.

Test [1] has as its target T1, rabbit originated IgG.
T1 construct: also called rabbit IgG; rabbit originated antibodies
Nature of the test: SPR (Biacore 3000), hybrid of 1a on CM-5 chip, antibody at 100-1,000 nM, nonlinear regression with BIAevaluation. How it is done:
(§1) The antibody solutions containing HIgG1, rabbit IgG, MIgG3 antibodies at the concentrations of 100 nM, 250 nM, 500 nM and 1,000 nM were spilled on the chip surface-treated with the hybrid of 1a of Example <3-1> at the speed of 10 μl/minute to induce the binding reaction and the degree of binding was measured by surface plasmon resonance (SPR) using Biacore 3000.
(§2) As a result, SPR sensor gram values represented in dotted line were obtained. The values were analyzed by nonlinear regression using BIAevaluation software equipped in Biacore 3000 to draw a theoretical line graph (FIG. 4a). From the theoretical graph, kinetic coefficients shown in FIG. 4b were obtained and the overlapping of each dotted line on the line indicates the calculation was correct.
Background: SPR reads the build-up and loss of mass on a sensor chip optically.

The target of test [2] is T2, human originated HIgG1.
T2 construct: also called human IgG1 (anti CRP) antibody
The description is as above. On the procedure: as §1, §2

For test [3], the target named is T1, rabbit originated IgG. Nature of the test: SPR (Biacore 3000), hybrid of 1a on a CM-5 chip, antibody at 100 to 1000 nM, nonlinear regression with BIAevaluation. On the procedure: as §1, §2
Test [4] has as its target T2, human originated HIgG1. The description is as above. On the procedure: as §1, §2
The target in test [5] is T3, BSA (UniProt P02769 25-607).
T3 construct: Control protein; also called BSA (control)
Nature of the test: SPR (Biacore 3000), peptide hybrid coupled to a dextran CM-5 Au chip; legend: chip of formula 1, paragraph 80: hybrid of 1a. How it is done:
Antibody solutions containing different animal originated antibodies of Example 2 or 5 μg/ml of BSA (control) in PBS were spilled on the chip of Example <3-1> at the speed of 10 μl/minute to bind the antibody to the peptide hybrid on the surface of the chip. The binding capacity was measured by surface plasmon resonance (SPR) using Biacore 3000.

For test [6], the target named is mouse originated antibody MIgG3. Briefly: SPR (Biacore 3000), hybrid of 1a on a CM-5 chip, antibody at 100 to 1000 nM, nonlinear regression with BIAevaluation; Kon and Koff printed as NA. On the procedure: as §1, §2

As usually defined, the Kd is the equilibrium constant for the complex coming apart. The low end stands for a tighter complex, the high end for a looser complex. The term koff denotes a measure of how fast the partners let go of each other. As a reminder, the kon is a measure of how fast the partners come together.

T3 sequence (P02769 25-607 limits assumed): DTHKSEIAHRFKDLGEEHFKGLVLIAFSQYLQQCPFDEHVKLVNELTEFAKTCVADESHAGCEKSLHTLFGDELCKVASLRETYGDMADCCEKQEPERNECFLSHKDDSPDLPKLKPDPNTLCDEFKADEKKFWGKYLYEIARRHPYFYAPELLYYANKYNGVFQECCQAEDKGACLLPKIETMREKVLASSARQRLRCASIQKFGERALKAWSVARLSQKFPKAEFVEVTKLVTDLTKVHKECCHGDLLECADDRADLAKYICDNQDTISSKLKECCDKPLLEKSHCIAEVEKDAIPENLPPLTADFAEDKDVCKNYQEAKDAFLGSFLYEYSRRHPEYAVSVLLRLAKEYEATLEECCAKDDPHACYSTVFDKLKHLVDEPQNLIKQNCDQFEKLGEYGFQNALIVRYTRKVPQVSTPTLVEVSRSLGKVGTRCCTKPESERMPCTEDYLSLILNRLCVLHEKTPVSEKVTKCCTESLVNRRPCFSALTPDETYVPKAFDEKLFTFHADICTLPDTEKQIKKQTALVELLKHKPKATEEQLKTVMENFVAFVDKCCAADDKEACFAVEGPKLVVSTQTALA

B1: peptide hybrid for protein immobilization represented by formula 1a (H2N(CH2CH2O)2CH2CH2CO-EDDC*AWHLGELVWC*T-CONH2) (peptide)
peptide: EDDCAWHLGELVWCT
modifications: N-terminal H2N(CH2CH2O)2CH2CH2CO- (PEG linker); C-terminal amide (CONH2); disulfide bond between the two Cys (C*)
notes: Synthetic peptide-PEG hybrid; In the assays it was coupled through its terminal amine to a CM-5 chip, magnetic micro beads or a glass plate; also called hybrid of 1a; peptide hybrid of 1a
Take B1: the figures for the Kd in test [1], in test [2] and in test [6] were 305 nM, 85 nM and over 20000 nM, respectively. The koff was found to be 0.043 s⁻¹ in test [3] and 0.02 s⁻¹ in test [4]. Besides, the kon in test [3] is 140000 M⁻¹ s⁻¹; in test [4] it was 230000 M⁻¹ s⁻¹. The binding result in test [5] was “no binding”.
